Laboratory results published in patent US20260028409A1 (Bristol-Myers Squibb, published 2026).
Each block holds one binder with its values, some of them ahead of it.

Key:
[1] = target: T1, BSA-conjugated peptide corresponding to the N-terminal 35 amino acid residues of hCCR8 (human, two sulfated tyrosine residues (positions not stated for this peptide); conjugated to bovine serum albumin (BSA)); experiment: ELISA, hybridoma supernatant on plate-coated BSA-conjugated sulfated N-terminal peptide (2 ug/ml)
T1 construct: Coated at 2 ug/ml on ELISA plates; also called BSA-conjugated CCR8 N-terminal peptide; sulfated N-terminal peptide of CCR8 conjugated to BSA
T1 sequence (peptide, as listed by the source): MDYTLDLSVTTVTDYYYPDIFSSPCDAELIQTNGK
Procedure: To broadly characterize the epitopes of confirmed CCR8-specific Abs, hybridoma culture supernatants were screened by ELISA to measure binding to hCCR8 N-terminal peptides. Briefly, a BSA-conjugated peptide corresponding to the N-terminal 35 amino acid residues of hCCR8 (SEQ ID NO: 74; 2 μg/ml) representing the properly sulfated hCCR8 N-terminus was coated onto high-binding 96-well plates (Corning, Corning, NY) overnight at 4° C. Plates were blocked with BSA and washed, then 100 μl of culture supernatant were added for 30-60 min on a plate shaker. After washing, an appropriate anti-Fc secondary Ab conjugated to horseradish peroxidase (HRP) was added and left for 30-60 min. The plates were developed with ABTS or HRP substrate (SurModics, Eden Prairie, MN), and absorbance was measured at 405 or 650 nm on a Sunrise microplate reader (TECAN; Mannedorf, Switzerland).

[2] = target: T2, human C-C Motif Chemokine Receptor 8 (hCCR8) (human, UniProt P51685 1-355); experiment: FACS on hCCR8-overexpressing Raji cells, fluorescent secondary Ab
T2 construct: also called human CCR8
T2 sequence (P51685 whole entry): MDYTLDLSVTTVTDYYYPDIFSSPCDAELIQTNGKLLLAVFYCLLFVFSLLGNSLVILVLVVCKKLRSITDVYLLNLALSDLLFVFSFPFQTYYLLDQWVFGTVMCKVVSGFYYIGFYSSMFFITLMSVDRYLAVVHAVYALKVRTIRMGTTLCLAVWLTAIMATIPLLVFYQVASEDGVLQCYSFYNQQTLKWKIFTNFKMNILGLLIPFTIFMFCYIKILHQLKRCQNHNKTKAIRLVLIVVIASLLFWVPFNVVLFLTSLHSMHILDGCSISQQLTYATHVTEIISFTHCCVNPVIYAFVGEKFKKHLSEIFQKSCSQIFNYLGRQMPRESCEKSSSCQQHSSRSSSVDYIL
Procedure: Four of the 6 mAbs bound to the hCCR8-expressing cells with an EC₅₀ below 1 nM (FIG. 2A; see Table 1) whereas no nonspecific binding was observed on the parental Raji cells (FIG. 2B).
FACS was used to evaluate the binding specificity of Abs binding to CCR8. […] Unbound dye was washed away and cells were plated into 96-well round bottom plates at a concentration of 5×10⁵ cells per well in FACS staining buffer (PBS w/o Ca/Mg, 2 mM EDTA, 0.2% BSA). Serial dilutions of mAbs that bind to an epitope other than an N-terminal epitope of CCR8 were added, starting at a concentration of 20 nM, and incubated on ice for 30 min. Unbound Abs were washed off and a detection secondary Ab was added and incubated for 30 min on ice. Additional washes were performed and Ab binding affinities were determined by measuring the fluorescence intensities of the secondary Abs on a LSRFortessa X-20 cytometer (BD Biosciences).

[3] = target: T2, human C-C Motif Chemokine Receptor 8 …; experiment: % receptor occupancy against 4A19 concentration, flow cytometry on CCR8^+ Tregs in healthy donor whole blood; the other of the two RO formats (direct/total or indirect/total)
Procedure: (§1) A head-to-head comparison of the two distinct RO assay formats was performed. Whole blood samples (180 μl) were pre-treated with various concentrations of the therapeutic mAb, mAb 4A19 (WO 2021/194942), mimicking different 4A19 dose treatment levels in subjects in the dose escalation arm of a Phase I clinical study (NCT04895709), and pre-incubated for 1 h at 37° C. Aliquots of the treated samples were transferred to 4° C. for periods of 24, 48 and 72h for specimen stability experiments.
(§2) After pre-incubation, tubes containing background samples were treated with a saturating concentration ([…]) of mAb 4A19, while other tubes (containing free or bound or FMO [fluorescence minus one] samples) were treated with PBS (equal volume as mAb 4A19) for 30 min at room temperature (RT). […]

[4] = target: T2, human C-C Motif Chemokine Receptor 8 …; experiment: % receptor occupancy against 4A19 concentration, flow cytometry on CCR8^+ Tregs in healthy donor whole blood; one of the two RO formats (direct/total or indirect/total)
Procedure: as §1, §2

[5] = target: T2, human C-C Motif Chemokine Receptor 8 …; experiment: cell-based or functional assay

B1: 21C17 mIgG2a (antibody, V domains shown)
VH: VVQLQQSGPVLVKPGASVKMSCAASGYTFTDNYINWVKQRHGKSLEWIGVINPYNGLTAYDQNFKGKATLTVDKSSSTAYMALNSLTSEASAVYYCARRYGGTPVRYFDVWGTGTTVTVSS
VL: DVVLTQTPLTLSVTIGQPASISCKSSQSLLDSSGKTYLNWLLQRPGQSPKRLIYLVSKLDSGVPDRFSGSGSGTDFTLKFSRVEAEDLGVYYCWQATHFPWSFGGGSKLEVKR
notes: Used unlabeled or conjugated to BV421; also called mAb 21C17; 21C17-mG2a
binding result [1]: no binding
EC50 [2]: 0.0807 nM

B3: 23A14 hIgG1 (antibody, V domains shown)
VH: QVQLVESGGGVVQPGRSLRLSCAVSGLTFSSYAMHWVRQAPGKGLEWVAVISYDGNKKYNADSVKGRFTISRDNSKNTLYLQMNSLRAEDTAVYYCARAEGKGDYWGQGTLVTVSS
VL: EIVLTQSPATLSLSPGERATLSCRASQSVSSYLVWYQQKPGQAPRLLIYDASNRATGIPARFSGSGSGTDFTLTISSLEPEDFAVYYCQQRSNWPRTFGQGTKVEIKR
notes: Tested as hIgG1; also called 23A14-hG1
binding result [1]: no binding
EC50 [2]: 0.112 nM

Further lines, results first:

binding result [1]: no binding
EC50 [2]: 0.0815 nM
B2: 22B13 mIgG2a (antibody, V domains shown)
VH: B1 VH
VL: DIQMTQTASSLSASLGARVTISCRASQDISNYLNWYQQKPDGTFELLIYYTSRLHSGVPSRFSGSGSGTDYSLTITNLEQEDIATYFCQQGETLPWTFGGGTKLEIKR
notes: also called 22B13-mG2a

EC50 [3]: 0.023 nM
EC50 [4]: 0.022 nM
Maximum Depletion (%) of CCR8^+ Tregs Relative to KLH Isotype Control; Endometrial cancer [5]: 69%
Maximum Depletion (%) of CCR8^+ Tregs Relative to KLH Isotype Control; Head and neck squamous cell carcinoma [5]: 25%
B4: mAb 4A19 (antibody, human IgG1, kappa, V domains shown)
VH: QVQLVQSGAEVKKPGASVKVSCKASGYTFTDSEMHWVRQATGQGLEWMGAIQPETGGTAYNQKFKARVTMTRDTSISTAYMELSSLRSEDTAVYYCARRRRNFDYWGQGTLVTVSS
VL: DIVMTQTPLSLSVTPGQPASISCRSSQSLFHSSGNTYLHWYLQKPGQPPQLLIYKVSNRFSGVPDRFSGSGSGTDFTLKISRVEAEDVGVYYCSQSTHVPFTFGQGTKLEIKR
notes: Therapeutic anti-hCCR8 mAb of WO 2021/194942; also called therapeutic anti-CCR8 mAb 4A19; A419
